# From patent US20250027068
# Biological target: pooled human IgG (human IgG1,2,3 and 4)
Protein,Enzyme Activity Endpoint Assay: Fab′2 [ng/µL],Enzyme Activity Endpoint Assay: Fc [ng/µL],Enzyme Activity Endpoint Assay: IgG [ng/µL],Enzyme Activity Endpoint Assay: scIgG [ng/µL]
PRT-476 (protein) MVTSVWTKGVTPPTNFTYGEDVLHAPYVANQGWYDITKAFDGGDDLLCGAATAGNMLHWWFDQNKEQIENYLKKHPEKQKINFNGEQMFDVKEAIDTKDSQTNSELFNYFKEKAFPYLSTKHLGVFPDHVIDMFINGYRLSLTNHGPTPVKRGSKDPRGGIFDAVFTRGDQSKLLTNRHDLKNKTLKEISDLIKQELTEGKALGISHTYANVRINHVINLWGADFDAEGNLEAIYVTDSDSNASIGMKKYFVGVNSNGKVAISAKEIEEDNIGAQVLGLFTLSTGQDIWNQTNLEHHHHHH,0,0,2090,0
PRT-512 (protein) MITSVWTKGVTPPAKFTQGEDVFHAPYVANQGWYDITKAFDGGDDLLCGAATAGNMLHWWFDQNKEEIEAYLKKHPEKQKIMFGDQELLDVRKVINTKDSQTNSALFNYFKDKAFPNLSARRLGVMPDLVLDMFINGYYLNVYKTQTTDVNRTYQTKDRRGGIFDAVFTRGDQSKLLTERHDLKNKTLKEISDLIKQELTEGKALGLSHTYANVRINHVINLWGADFDSNGNLEAIYVTDSDSNASIGMKKYFVGVNSAGKVAISAKEIKEDNIGAQVLGLFTLSTGQDIWNQTNLEHHHHHH,884,372,31,0
PRT-506 (protein) MITSVWTKGVTPPTDFIKGEDVFHAPYKAGQGWYDITKTFNGKDDLLCGAATAGNMLHWWFDQNKEEIEAYLKKHPEKQKIMFGDQELLDVRKVINTKDSQTNSALFNYFKDKAFPNLSARRLGVMPDLVLDMFINGYYLNVYKTQTTDVNRTYQTKDRRGGIFDAVFTRGDQSKLLTERHDFKEKTLKEISDLIKQELTEGKALGLSHTYANVRINHVINLWGADFDSNGNLEAIYVTDSDSNASIGMKKYFVGVNSAGKVAISAKEIKEDNIGAQVLGLFTLSTGQDIWNQTNLEHHHHHH,1120,453,43,0
PRT-502 (protein) MITSVWTKGVTPPTDFIKGEDVFHAPYKAGQGWYDITKAFDGGDDLLCGAATAGNMLHWWFDQNKEYIEAYLKKHPEKQKIMFGDQELLDVRKAINTKGSQKNSELFNYFRDKAFPNLSARRLGVMPDLVLDMFINGYYLNVTKTQTTDVNRQEQEKDKRGGIFDAVFGRGDQTKLLTSRHDFKEKGLNEISQLIKQELTEGKALGLSHTYANVRINHVINLWGADFDADGNLEAIYVTDSDSNASIGMKKYFVGVNSAGKVAISAKEIKEDNIGAQVLGLFTLSTGQKIWNKTNLEHHHHHH,307,283,66,296
PRT-491 (protein) MVTSVWTKGVTPPTDFIYGEDVLHAPYKAGQGWYDITKTFNGKDNLLCGAATAGNMLHWWFDQNKEQIENYLKKHPEKQKIIFNNQELFDLKAAIDTKDSQLDSKLFEYFKEKAFPYLSTKHLGVFPDHVIDMFINGYRLSLTNHGPTPVKRGSKDKRGGIFDAVFTRGVQSKLLTNRHDLKNKTLKEISDLIKQELTEGKALGISHTYANVRINHVINLWGADFDAEGNLEAIYVTDSDTNASIGMKKYFVGVNSNGKVAISAKEIEEDNIGAQVLGLFTLSTGQDIWNQTNLEHHHHHH,769,260,140,331
PRT-478 (protein) MITSVWTKGVTPPTDFIYGEDVLHAPYKAGQGWYDITKAFDGGDDLLCGAATAGNMLHWWFDQNKEQIENYLKKHPEKQKINFNGEQMFDVKEAIDTKDSQTNSELFNYFKEKAFPYLSTKHLGVFPDHVIDMFINGYRLSLTNHGPTPVKRQEKDPRGGIFDAVFGRGDQTKLLTNRHDFKEKTLNEISQLIKQELTEGKALGISHTYANVRINHVINLWGADFDAEGNLEAIYVTDSDSNASIGMKKYFVGVNSNGKVAISAKEIEEDNIGAQVLGLFTLSTGQKIWNKTNLEHHHHHH,509,453,216,362
PRT-494 (protein) MVTSVWTKGVTPPTDFIKGEDVFHAPYKAGQGWYDITKTFNGKDDLLCGAATAGNMLHWWFDQNKEYIEAYLKKHPEKQKIMFGDQELLDVRKAINTKGSQKNSELFNYFRDKAFPNLSARRLGVMPDLVLDMFINGYYLNVTKTQTTDVNRTYQEKDKRGGIFDAVFTRGDQSKLLTSRHDFKEKGLKEISDLIKQELTEGKALGLSHTYANVRINHVINLWGADFDSDGNLKAIYVTDSDSNASIGMKKYFVGVNSAGKVAISAKEIKEDNIGAQVLGLFTLSTGQDIWNQTNLEHHHHHH,1210,489,0,0
PRT-618 (protein) MQITSVWTKGVIPLTPEQFRYNNEDVIHAPYLPHQGWYDITKAFDGGDNLLCGAATAGNMLHWWFDQNKTEIEAYLSKYPEKQKIIFNNQELFDLRAAINTKDSQTNSQLFNYFRDKAFPNLSARQLGVMPDLVLDMFINGYYLNVFKTQSTDVNRPYQDRDKRGGIFDHVFGRGDQTTLLTARHDLKNGGLNDISTIIKQELQSGRALALSHTYANVSISHVINLWGADFNAEGNLEAIYVTDSDANSSIGMKKYYVGINAHGHVAISAKKIEGENIGAQVLGLFTLSSGKEIWQKLSLEHHHHHH,976,419,0,0
PRT-458 (protein) MVTSVWTKGVTPPTDFIKGEDVFHAPYKAGQGWYDITKTFNGKDDLLCGAATAGNMLHWWFDQNKDQIERYLKEHPEKQKINFNGEQMFDVKEAIDTKDSQTDSKLFEYFKEKAFPYLSTKHLGVFPDHVLDMFINGYRLSLTNHGPTPVKEGSKDPRGGIFDAVFTRGDQSKLLTSRHDFKEKTLKEISDLIKQELTEGKALGLSHTYANVRINHVINLWGADFDSEGNLKAIYVTDSDSNASIGMKKYFVGVNSAGKVAISAKEIKEDNIGAQVLGLFTLSTGQDIWNQTNLEHHHHHH,598,224,112,226
PRT-448 (protein) MVTSVWTKGVTPPTDFIKGEDVFHAPYKAGQGWYDITKTFNGKDDLLCGAATAGNMLHWWFDQNKDQIEAYLKEHPEKQKINFNGEQMFDVKEAIDTKDDQTNSKLFEYFKEKAFPYLSTKHLGVFPDHVLDMFINGYRLSLTNHGPTPVKEGSKDPRGGIFDAVFTRGDQSKLLTSRHDLKNKTLKEISDLIKQELTEGKALALSHTYANVRINHVINLWGADFDSNGNLEAIYVTDSDSNASIGMKKYFVGVNSAGKVAISAKEIEDDNIGAQVLGLFTLSTGQDIWNQTNLEHHHHHH,0,0,2150,0
PRT-454 (protein) MITSVWTKGVTPPTDFIKGEDVFHAPYKAGQGWYDITKAFDGGDDLLCGAATAGNMLHWWFDQNKDQIEAYLKEHPEKQKINFNGEQMFDVKEAIDTKDDQTNSELFNYFKEKAFPYLSTKHLGVFPDHVLDMFINGYRLSLTNHGPTPVKRQEKDPRGGIFDAVFGRGDQTKLLTSRHDFKEKTLNEISQLIKQELTEGKALALSHTYANVRINHVINLWGADFDAEGNLEAIYVTDSDSNASIGMKKYFVGVNSAGKVAISAKEIEDDNIGAQVLGLFTLSTGQKIWNKTNLEHHHHHH,217,317,94,653
PRT-670 (protein) MQITSVWTKGVTPLTPEQFRNNNEDVFHAPYLPNQGWYDITKAFNGKDNLLCGAATAGNMLHWWFDQNKEEIEAYLKKYPEKQKIIFNNQELFDLRKAINTKDSQTNSALFNYFRDKAFPNLSARQLGVMPDHVLDMFINGYYLNVGKTQSTDVNRPYQDKDKRGGIFDHVFNRGDQTKLLTARHDLKNKTLNDISTLIKQELSSGKALALSHTYANVGISHVINLWGADFNAEGNLEAIYVTDSDDRASIGMKKYYVGRNASGHVAISAKKIEGENLGAQVLGLFTLSSGKEIWQKLSLEHHHHHH,0,174,594,798
PRT-468 (protein) MITSVWTKGVTPPTDFIKGEDVFHAPYKAGQGWYDITKAFDGGDDLLCGAATAGNMLHWWFDQNKDQIERYLKEHPEKQKINFNGEQMFDVKEAIDTKDSQTNSELFNYFKEKAFPYLSTKHLGVFPDHVLDMFINGYRLSLTNHGPTPVKEGSKDPRGGIFDAVFTRGDQSKLLTSRHDLKNKTLNEISQLIKQELTEGKALGLSHTYANVRINHVINLWGADFDAEGNLEAIYVTDSDSNASIGMKKYFVGVNSAGKVAISAKEIKEDNIGAQVLGLFTLSTGQDIWNQTNLEHHHHHH,957,385,115,66
PRT-466 (protein) MITSVWTKGVTPPTDFIKGEDVFHAPYKAGQGWYDITKAFDGGDDLLCGAATAGNMLHWWFDQNKDQIERYLKEHPEKQKINFNGEQMFDVKEAIDTKDSQTNSELFNYFKEKAFPYLSTKHLGVFPDHVLDMFINGYRLSLTNHGPTPVKRQEKDPRGGIFDAVFGRGDQTKLLTSRHDFKEKTLNEISQLIKQELTEGKALGLSHTYANVRINHVINLWGADFDAEGNLEAIYVTDSDSNASIGMKKYFVGVNSAGKVAISAKEIKEDNIGAQVLGLFTLSTGQKIWNKTNLEHHHHHH,404,362,161,303
